Laboratory results published in patent US20240254239A1 (LAEKNA THERAPEUTICS SHANGHAI, published 2024).

Columns and labels:
[1] = molecular target: T1, human ANTXR1 ECD (human, UniProt Q9H6X2 33-321); test: direct ELISA on coated recombinant ECD (30 ng/well), HRP-conjugated secondary antibody, luminescence
T1 construct: extracellular domain; also called recombinant extracellular domain of ANTXR1
T1 sequence (looked up): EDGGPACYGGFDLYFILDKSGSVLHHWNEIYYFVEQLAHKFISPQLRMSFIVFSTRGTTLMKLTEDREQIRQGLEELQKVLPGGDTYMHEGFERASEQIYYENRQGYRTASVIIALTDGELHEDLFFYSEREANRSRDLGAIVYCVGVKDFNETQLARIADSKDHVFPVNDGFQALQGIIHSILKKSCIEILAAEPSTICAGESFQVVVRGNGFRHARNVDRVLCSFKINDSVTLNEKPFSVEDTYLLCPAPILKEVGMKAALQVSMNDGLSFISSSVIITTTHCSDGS
Experimental: (§1) Briefly, recombinant extracellular domain of PDGFRb, FAPα, ULBP1, uPAR, IGF1R, SIRPA, PD-L1, ANTXR1, CD248, or GPC3 (30 ng/well) was coated on white optiplate™-384 well HB plate. After overnight coating, standard direct ELISA assay was performed. Luminescence signal was detected after using secondary antibody with HRP conjugated. Binding activity of each antibody was determined based on dose dependent binding curve.

[2] = molecular target: T2, human CD248 ECD (human, UniProt Q9HCU0 18-687); test: as above
T2 construct: extracellular domain; also called recombinant extracellular domain of CD248
T2 sequence (looked up): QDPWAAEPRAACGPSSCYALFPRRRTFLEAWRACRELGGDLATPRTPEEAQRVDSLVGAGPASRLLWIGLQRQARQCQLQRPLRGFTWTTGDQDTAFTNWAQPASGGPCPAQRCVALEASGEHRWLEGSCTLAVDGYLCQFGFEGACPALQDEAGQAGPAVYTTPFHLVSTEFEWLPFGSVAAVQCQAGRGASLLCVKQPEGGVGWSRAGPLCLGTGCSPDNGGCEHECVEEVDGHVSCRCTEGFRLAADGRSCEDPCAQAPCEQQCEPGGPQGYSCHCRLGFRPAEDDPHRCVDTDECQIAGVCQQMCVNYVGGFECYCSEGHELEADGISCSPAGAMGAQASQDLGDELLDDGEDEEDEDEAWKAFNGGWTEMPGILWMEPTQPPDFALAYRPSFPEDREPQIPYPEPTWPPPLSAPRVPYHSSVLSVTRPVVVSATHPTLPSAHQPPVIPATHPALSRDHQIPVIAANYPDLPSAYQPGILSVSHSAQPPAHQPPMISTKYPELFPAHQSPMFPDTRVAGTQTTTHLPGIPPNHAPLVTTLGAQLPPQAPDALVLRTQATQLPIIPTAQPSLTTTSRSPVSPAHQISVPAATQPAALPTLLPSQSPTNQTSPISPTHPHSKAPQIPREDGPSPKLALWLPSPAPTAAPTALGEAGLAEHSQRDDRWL
Experimental: as §1

[3] = molecular target: T3, human uPAR ECD (human, UniProt Q03405 23-305, limits assumed); test: as above
T3 construct: extracellular domain; also called recombinant extracellular domain of uPAR
Experimental: as §1

[4] = molecular target: T4, IGF-1R on TGFb1-activated primary human HSC cells (human, UniProt P08069 31-1367); test: flow cytometry on TGFb1-activated primary human HSC cells, 10 ug/ml antibody, fluorophore-conjugated secondary antibody
T4 construct: whole, on cells
Experimental: Relative expression levels of the antigens on activated HSC were assayed using FACS. Human primary hepatic stellate cells (ScienCell, 5301) were cultured in culture medium (ScienCell, 5300). The cells were activated using 2 ng/ml human TGFb1 (Sinobiological, 10804-HNAC) for 24 hours. These cells were then collected for FACS assay. Briefly, the cells were incubated with 10 μg/ml primary antibody in blocking buffer (10% FBS in PBS) at 4 °C for 1 hour. After two rounds of PBS washes, the cells were stained with secondary antibody conjugated with a fluorophore. The mean fluorescence intensity was measured using FACS. Among the antigens tested, fibroblast activation protein alpha (FAPα) was expressed at relatively high levels, while uPAR, IGF-1R, GPC3, CD248 and NKG2D ligands were expressed at relatively low levels on TGFb1-activated HSC cells.

[5] = molecular target: T5, human FAPa ECD (human, UniProt Q12884 26-760); test: direct ELISA on coated recombinant ECD (30 ng/well), HRP-conjugated secondary antibody, luminescence
T5 construct: extracellular domain; also called recombinant extracellular domain of FAPα
T5 sequence (looked up): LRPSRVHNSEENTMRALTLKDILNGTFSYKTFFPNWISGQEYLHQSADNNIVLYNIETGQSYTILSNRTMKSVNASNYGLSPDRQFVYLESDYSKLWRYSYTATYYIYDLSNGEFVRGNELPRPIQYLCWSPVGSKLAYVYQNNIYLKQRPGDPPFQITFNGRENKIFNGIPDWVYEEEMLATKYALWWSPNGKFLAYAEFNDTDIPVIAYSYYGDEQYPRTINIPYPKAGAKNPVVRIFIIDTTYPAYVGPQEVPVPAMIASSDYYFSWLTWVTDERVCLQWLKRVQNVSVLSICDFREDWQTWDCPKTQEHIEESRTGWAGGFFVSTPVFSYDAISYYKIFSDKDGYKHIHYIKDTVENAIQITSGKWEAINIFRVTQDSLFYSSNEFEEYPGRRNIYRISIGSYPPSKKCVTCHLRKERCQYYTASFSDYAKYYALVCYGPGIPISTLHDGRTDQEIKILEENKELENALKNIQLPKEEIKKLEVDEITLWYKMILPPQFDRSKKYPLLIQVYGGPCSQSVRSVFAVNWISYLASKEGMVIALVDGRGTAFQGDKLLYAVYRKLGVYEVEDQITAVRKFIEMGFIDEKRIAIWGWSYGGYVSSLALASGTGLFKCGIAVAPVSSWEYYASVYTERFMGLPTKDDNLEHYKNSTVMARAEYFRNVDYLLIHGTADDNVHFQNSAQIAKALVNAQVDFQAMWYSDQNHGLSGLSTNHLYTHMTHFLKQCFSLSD
Experimental: as §1

[6] = molecular target: T6, human SIRPA ECD (human, UniProt P78324 31-373); test: as above
T6 construct: extracellular domain; also called recombinant extracellular domain of SIRPA
Experimental: as §1

T3 sequence (Q03405 23-305 limits assumed): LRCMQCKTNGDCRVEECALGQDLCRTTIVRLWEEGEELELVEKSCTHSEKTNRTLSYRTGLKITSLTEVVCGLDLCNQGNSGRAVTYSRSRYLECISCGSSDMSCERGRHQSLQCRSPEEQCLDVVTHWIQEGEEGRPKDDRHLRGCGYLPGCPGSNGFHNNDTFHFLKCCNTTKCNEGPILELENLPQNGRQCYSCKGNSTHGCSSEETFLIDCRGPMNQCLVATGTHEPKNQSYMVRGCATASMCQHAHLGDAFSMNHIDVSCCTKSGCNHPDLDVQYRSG
T4 sequence (P08069 31-1367): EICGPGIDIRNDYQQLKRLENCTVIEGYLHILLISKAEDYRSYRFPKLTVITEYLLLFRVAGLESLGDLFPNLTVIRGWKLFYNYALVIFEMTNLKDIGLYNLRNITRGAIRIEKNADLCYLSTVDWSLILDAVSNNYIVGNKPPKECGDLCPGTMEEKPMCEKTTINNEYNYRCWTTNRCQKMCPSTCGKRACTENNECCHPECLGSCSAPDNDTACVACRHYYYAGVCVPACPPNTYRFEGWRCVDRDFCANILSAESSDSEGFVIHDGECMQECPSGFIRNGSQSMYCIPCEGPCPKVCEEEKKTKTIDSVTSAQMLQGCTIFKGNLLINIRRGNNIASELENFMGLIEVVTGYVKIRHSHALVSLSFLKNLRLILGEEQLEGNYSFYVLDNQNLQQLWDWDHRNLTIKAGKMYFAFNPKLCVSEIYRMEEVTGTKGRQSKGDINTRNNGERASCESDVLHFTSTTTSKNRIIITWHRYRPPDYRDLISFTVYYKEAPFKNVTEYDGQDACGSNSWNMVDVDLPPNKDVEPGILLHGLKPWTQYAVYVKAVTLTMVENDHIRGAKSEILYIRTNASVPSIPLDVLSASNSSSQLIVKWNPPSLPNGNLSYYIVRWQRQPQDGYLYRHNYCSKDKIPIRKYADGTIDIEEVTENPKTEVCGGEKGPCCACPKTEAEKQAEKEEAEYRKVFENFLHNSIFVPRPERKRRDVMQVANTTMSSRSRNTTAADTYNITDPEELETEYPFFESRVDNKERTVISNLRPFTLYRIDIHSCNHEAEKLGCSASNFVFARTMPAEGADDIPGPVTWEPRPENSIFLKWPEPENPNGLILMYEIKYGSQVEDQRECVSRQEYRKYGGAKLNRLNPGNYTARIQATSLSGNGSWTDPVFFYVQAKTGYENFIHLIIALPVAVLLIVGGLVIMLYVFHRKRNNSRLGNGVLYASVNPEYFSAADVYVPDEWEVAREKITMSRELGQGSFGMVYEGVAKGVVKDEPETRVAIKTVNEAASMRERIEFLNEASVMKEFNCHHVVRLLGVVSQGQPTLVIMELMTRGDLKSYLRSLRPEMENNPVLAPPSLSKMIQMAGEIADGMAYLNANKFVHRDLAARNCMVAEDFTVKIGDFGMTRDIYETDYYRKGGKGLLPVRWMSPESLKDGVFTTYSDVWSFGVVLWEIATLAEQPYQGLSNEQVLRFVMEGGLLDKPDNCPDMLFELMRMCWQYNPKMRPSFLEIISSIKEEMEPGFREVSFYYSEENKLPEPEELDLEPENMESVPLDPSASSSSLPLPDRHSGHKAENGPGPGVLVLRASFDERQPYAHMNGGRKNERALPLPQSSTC
T6 sequence (P78324 31-373): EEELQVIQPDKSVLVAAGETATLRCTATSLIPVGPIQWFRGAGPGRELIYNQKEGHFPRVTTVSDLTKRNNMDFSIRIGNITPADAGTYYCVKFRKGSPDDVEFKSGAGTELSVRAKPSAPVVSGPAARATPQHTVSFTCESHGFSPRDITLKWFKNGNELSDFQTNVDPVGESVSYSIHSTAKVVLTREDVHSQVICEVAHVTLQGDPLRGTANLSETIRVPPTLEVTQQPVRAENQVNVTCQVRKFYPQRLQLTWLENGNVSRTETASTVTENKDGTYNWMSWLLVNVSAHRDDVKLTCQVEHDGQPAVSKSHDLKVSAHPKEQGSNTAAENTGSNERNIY

B1: α-ANTXR1 1 mIgG2a S239D/1332E (antibody, V domains shown)
VH: QVQLVQSGAEVKKPGTSVKVSCKVPGYTFSSYAISWVRQAPGQGLEWMGGIIPIFGTTNYAQKFQGRVTITGEESTSTVYMELSSLRSEDTAVYYCARDTDYMFDYWGQGTLVTVSS
VL: SSELTQDPVVSVALGETVSITCQGDNLRDFYASWYQQKPGQAPLLVMYGKNRRPSGIPDRFSGSTSGNTLSLTITGAQAEDEADYYCSSRDNSKHVVFGGGTKVTVLG
notes: mIgG2a with S239D/I332E; also called α-ANTXR1 1 mIgG2a S239D/I332E; exemplary anti-ANTXR1 antibody (α-ANTXR1 1)
In the case of B1, the “EC50 (read off the curve)” value [1] is reported as ~0.01 µg/mL.

B2: α-CD248 2 mIgG2a S239D/1332E (antibody, V domains shown)
VH: QVQLQESGPGLVRPSQTLSLTCTASGYTFTDYVIHWVKQPPGRGLEWIGYINPYDDDTTYNQKFKGRVTMLVDTSSNTAYLRLSSVTAEDTAVYYCARRGNSYDGYFDYSMDYWGSGTPVTVSS
VL: DIQMTQSPSSLSASVGDRVTITCRASQNVGTAVAWLQQTPGKAPKLLIYSASNRYTGVPSRFSGSGSGTDYTFTISSLQPEDIATYYCQQYTNYPMYTFGQGTKVQIKR
notes: mIgG2a with S239D/I332E; also called α-CD248 2 mIgG2a S239D/I332E; exemplary anti-CD248 antibody (α-CD248 2)
B2 was tested, and the “EC50 (read off the curve)” value [2] was ~0.01 µg/mL.

B3: α-uPAR 1 S239D/1332E (antibody, human IgG1, kappa, V domains shown)
VH: QVQLVESGGGVVQPGRSLRLSCAASGFTFSSYGMHWVRQAPGKGLEWVAVIWYDGSNKYYADSVKGRFTISRDNSKNTLYLQMNSLRAEDTAVYYCARDQHIVVVTAILDYWGQGTLVTVSS
VL: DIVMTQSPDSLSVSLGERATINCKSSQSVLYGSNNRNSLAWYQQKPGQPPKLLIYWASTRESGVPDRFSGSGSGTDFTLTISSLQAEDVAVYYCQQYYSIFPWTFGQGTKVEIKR
notes: hIgG1 with S239D/I332E; also called α-uPAR 1 S239D/I332E; exemplary anti-uPAR antibody (α-uPAR 1)
For B3, the “EC50 (read off the curve)” value [3] was ~0.03 µg/mL.

B4: α-IGF1R 2 S239D/1332E (antibody, human IgG1, kappa, V domains shown)
VH: EVQLLESGGGLVQPGGSLRLSCAASGFTFSNYPMYWVRQAPGKGLEWVSRISSSGGRTVYADSVKGRFTISRDNSKNTLYLQMNSLRAEDTAVYYCARDRWSRSAAEYGLGGYWGQGTLVTVSS
VL: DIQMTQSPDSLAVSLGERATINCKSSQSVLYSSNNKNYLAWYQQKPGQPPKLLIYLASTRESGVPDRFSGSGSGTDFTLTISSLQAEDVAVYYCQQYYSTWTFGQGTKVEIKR
notes: hIgG1 with S239D/I332E; also called α-IGF1R 2 S239D/I332E; exemplary anti-IGF1R antibody (α-IGF1R 2)
B4: binds [4].

B5: α-FAPa 1 S239D/1332E (antibody, mouse IgG2a, kappa, V domains shown)
VH: QVQLVQSGAEVKKPGASVKVSCKTSRYTFTEYTIHWVRQAPGQRLEWIGGINPNNGIPNYNQKFKGRVTITVDTSASTAYMELSSLRSEDTAVYYCARRRIAYGYDEGHAMDYWGQGTLVTVSS
VL: DIVMTQSPDSLAVSLGERATINCKSSQSLLYSRNQKNYLAWYQQKPGQPPKLLIFWASTRESGVPDRFSGSGFGTDFTLTISSLQAEDVAVYYCQQYFSYPLTFGQGTKVEIKR
notes: also called α-FAPα 1 S239D/I332E
B5: binds [5].

B6: α-SIRPA 1 S239D/1332E (antibody, human IgG1, kappa, V domains shown)
VH: EVQLQQSGAELVKPGASVKLSCTTSGFNFKDMYIHWVKQRPQQGLEWIGRIDPENDDTKYDPKFQDKATITADTSSNTAYLQLSNLPSEDTAVYYCARGNYVHWGQGTLVTVSA
VL: DIVLTQSPASLAVSLGQRATISCRASESVQYYGTSLMQWYQQKPGQPPKLLIYAASNVESGVPARFSGSGSGTDFSLNIYPVEEDDIAMYFCQQSRRVWTFGGGTKLEIKR
notes: Chimeric: murine variable regions, hIgG1 constant region with S239D/I332E; also called α-SIRPA 1 S239D/I332E; exemplary anti-SIRPA antibody (α-SIRPA 1)
In the case of B6, the “EC50 (read off the curve)” value [6] is reported as ~0.3 nM.
